Data published in US20220411504A1 (Janssen / Centocor, published 2022).

Target: T1, human Kallikrein-2 6-His protein (soluble hK2) (human, UniProt P20151 18-261, limits assumed)
T1 construct: The assays say only 'soluble hK2' or 'human KLK2 antigen'; also called KLK2; kallikrein related peptidase 2
Experiment: SPR, bispecific captured by anti-Fc, soluble hK2 injected

T1 sequence (P20151 other isoform, or with tags, fused parts or gaps limits assumed): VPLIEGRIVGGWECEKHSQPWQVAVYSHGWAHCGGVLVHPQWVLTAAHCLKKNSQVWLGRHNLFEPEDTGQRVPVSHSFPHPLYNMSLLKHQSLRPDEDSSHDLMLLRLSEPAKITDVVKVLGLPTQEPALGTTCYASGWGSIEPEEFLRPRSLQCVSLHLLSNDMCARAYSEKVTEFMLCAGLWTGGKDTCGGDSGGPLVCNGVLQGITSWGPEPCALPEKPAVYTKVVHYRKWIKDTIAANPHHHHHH

B1: KL2B242 Fab (arm of a hK2/CD3 bispecific, Table 40) (bispecific antibody)
chain 1: QVQLQESGPGLVKPSETLSLTCTVSGGSISSYYWSWLRQPAGSGLEWIGRLYVSGFTNYNPSLKSRVTLSLDPSRNQLSLKLSSVTAADTAVYYCAGDSGNYWGWFDPWGQGTLVTVSSASTKGPSVFPLAPSSKSTSGGTAALGCLVKDYFPEPVTVSWNSGALTSGVHTFPAVLQSSGLYSLSSVVTVPSSSLGTQTYICNVNHKPSNTKVDKKVEPKSCDKTHTCPPCPAPEAAGGPSVFLFPPKPKDTLMISRTPEVTCVVVSVSHEDPEVKFNWYVDGVEVHNAKTKPREEQYNSTYRVVSVLTVLHQDWLNGKEYKCKVSNKALPAPIEKTISKAKGQPREPQVYVLPPSREEMTKNQVSLLCLVKGFYPSDIAVEWESNGQPENNYLTWPPVLDSDGSFFLYSKLTVDKSRWQQGNVFSCSVMHEALHNHYTQKSLSLSPG
chain 2: SYELTQPPSVSVSPGETASITCSGDQLGENYASWYQQKPGQSPVLVIYQDSKRPSGIPERFSGSNSGNTATLTISGTQALDEADYYCQAWDNSIVVFGGGTKLTVLGQPKAAPSVTLFPPSSEELQANKATLVCLISDFYPGAVTVAWKADSSPVKAGVETTTPSKQSNNKYAASSYLSLTPEQWKSHRSYSCQVTHEGSTVEKTVAPTECS
chain 3: DIQMTQSPSSLSASVGDRVTITCRARQSIGTAIHWYQQKPGKAPKLLIKYASESISGVPSRFSGSGSGTDFTLTISSLQPEDFATYYCQQSGSWPYTFGQGTKLEIKGGSEGKSSGSGSESKSTGGSEVQLVESGGGLVKPGGSLRLSCAASGFTFSRYNMNWVRQAPGKGLEWVSSISTSSNYIYYADSVKGRFTFSRDNAKNSLDLQMSGLRAEDTAIYYCTRGWGPFDYWGQGTLVTVSSEPKSSDKTHTCPPCPAPEAAGGPSVFLFPPKPKDTLMISRTPEVTCVVVSVSHEDPEVKFNWYVDGVEVHNAKTKPREEQYNSTYRVVSVLTVLHQDWLNGKEYKCKVSNKALPAPIEKTISKAKGQPREPQVYVYPPSREEMTKNQVSLTCLVKGFYPSDIAVEWESNGQPENNYKTTPPVLDSDGSFALVSKLTVDKSRWQQGNVFSCSVMHEALHNHYTQKSLSLSPG
- Kd: 0.14 nM
